According to the supplement of paper PMC9732359:
± gives the uncertainty stated by the source.

Experiment: protein stability index of a GFP-peptide fusion (yeast GPS) (PSI 1-4); higher = more stable; sorted into four equal gates, so the index is relative within each strain
Procedure, shortened: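 Tiled 17-residue peptides from yeast proteins were fused downstream of GFP on a plasmid that also expresses Cherry, and the pooled library was carried in yeast. Mid-log cultures grown in leucine-free medium were sorted into four equal gates by GFP/Cherry fluorescence ratio. Plasmids from each gate were PCR-amplified and Illumina-sequenced, and reads were assigned to strains by barcodes. Each peptide's protein stability index is the sum, over gates, of the gate's read frequency multiplied by its gate number.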

Sequence	protein stability index (doa10∆)	protein stability index (pdr5∆)	protein stability index (san1∆)	protein stability index (ubr1∆)
SQVVETHKVTDIYSHEY [YMR129W/POM152]	2.75 ± 0.083	2.77 ± 0.089	2.68 ± 0.073	2.83 ± 0.15
SRGINKGHKFNNTKAGR [RPL15A]	3.28 ± 0.29	3 ± 0.2	–	3.4 ± 0.17
SRILKAQSRNVEIEKRI [YGR119C/NUP57]	3.39 ± 0.07	3.15 ± 0.066	2.98 ± 0.067	2.67 ± 0.053
SRKQKIAKTFTVDVSSP [RPL22A]	2.81 ± 0.08	3.1 ± 0.077	2.95 ± 0.069	2.68 ± 0.05
SRPGQSGRCDGYILEGE [RPS8A]	3.38 ± 0.19	3.49 ± 0.17	3.3 ± 0.17	3.38 ± 0.049
SRPLKKVKILEQIDENW [SWI3]	2.94 ± 0.077	3.11 ± 0.067	2.82 ± 0.072	2.99 ± 0.044
SRTDAVRCKDCGHRILL [RPC10]	2.62 ± 0.16	3.31 ± 0.19	2.66 ± 0.13	3.02 ± 0.078
SRTRAHAQSKREGRHSG [RPL19A]	2.87 ± 0.076	2.85 ± 0.07	2.83 ± 0.042	2.99 ± 0.037
SSAAILGLGIAFAGSKN [RPN1]	1.35 ± 0.081	1.94 ± 0.097	2.03 ± 0.29	1.34 ± 0.092
SSDALSKEKANFLETIA [SIR4]	1.49 ± 0.057	1.68 ± 0.046	1.38 ± 0.091	1.52 ± 0.048
SSHLSDNDFIINDFKKI [POP5]	3.06 ± 0.077	2.73 ± 0.067	2.75 ± 0.055	2.74 ± 0.036
SSKAATPDTKNFFHAKK [SNF12]	3.12 ± 0.058	2.96 ± 0.051	2.99 ± 0.048	2.93 ± 0.047
SSNASFNNQGKLDLFKY [MED1]	2.93 ± 0.039	3.03 ± 0.038	2.71 ± 0.032	3.04 ± 0.041
SSNCHVRQKIKTLKRMI [POP1]	1.41 ± 0.04	1.75 ± 0.053	1.42 ± 0.091	2.01 ± 0.045
SSNIAGTNPLSSDGAYT [SSN2]	3.04 ± 0.13	2.73 ± 0.17	3.03 ± 0.062	3.33 ± 0.12
SSRTKFWSFLDSLIFKD [YJL039C/NUP192]	2.78 ± 0.18	2.87 ± 0.17	–	2.72 ± 0.12
SSSANKLLQLFLTPMDS [YML103C/NUP188]	1.81 ± 0.052	1.61 ± 0.059	1.64 ± 0.085	1.41 ± 0.042
SSTDEESWFKALAGSEI [FAS1]	3.32 ± 0.12	3.34 ± 0.14	3.11 ± 0.11	3.3 ± 0.081
SSTGNANTSNNLFGATA [YJL041W/NSP1]	3.44 ± 0.084	3.31 ± 0.049	3.3 ± 0.051	3.29 ± 0.056
SSVKCFGPIKVELPTKE [FAS1]	2.5 ± 0.069	1.98 ± 0.05	2.56 ± 0.057	1.97 ± 0.057
SSWQIYSDENDPSISNN [RRP4]	2.48 ± 0.12	3.16 ± 0.11	3.06 ± 0.072	3.33 ± 0.14
STGPTGAVSLNPSITRL [RRP4]	2.92 ± 0.057	3.05 ± 0.074	2.88 ± 0.042	3.06 ± 0.05
STKFDYPPMPFDGFLFG [FAS1]	2.56 ± 0.046	2.63 ± 0.051	2.68 ± 0.063	2.68 ± 0.037
STKLSRPFDSFGKLLQA [ITC1]	2.42 ± 0.054	2.67 ± 0.066	2.35 ± 0.057	2.03 ± 0.063
STKSNKAKNPLTHSTPK [RPL8B]	2.33 ± 0.069	2.83 ± 0.059	2.94 ± 0.058	2.73 ± 0.071
STQELQTRAKLLDNEIR [RPT5]	3.2 ± 0.15	3.05 ± 0.085	3.03 ± 0.083	2.98 ± 0.044

Sequence	protein stability index (doa10∆)	protein stability index (pdr5∆)	protein stability index (san1∆)	protein stability index (ubr1∆)
STQPSFAWSKPSTGSNL [YGR119C/NUP57]	2.98 ± 0.054	3.04 ± 0.055	3.01 ± 0.048	2.98 ± 0.038
STSVGWKYEDVVAKLED [RPL16B]	3.31 ± 0.073	2.28 ± 0.094	2.48 ± 0.11	3.33 ± 0.075
STTFADCPVVPADPDIL [RPC40]	2.8 ± 0.071	2.87 ± 0.084	2.41 ± 0.11	2.43 ± 0.094
STVKVSDLNLTDRQKKL [YLR018C/POM34]	2.9 ± 0.063	2.75 ± 0.048	2.79 ± 0.047	2.76 ± 0.037
SVFMPLIFIACNDEDKD [ECM29]	2.99 ± 0.069	2.93 ± 0.058	2.09 ± 0.079	2.55 ± 0.04
SVFYTILRDYGPQEAAN [RPO31]	3.42 ± 0.11	3.25 ± 0.094	3.27 ± 0.071	2.88 ± 0.069
SVHHARVLITQRHIAVG [RPS9A]	–	1.31 ± 0.14	–	–
SVLLHHKTMSIVGVLQD [RPT2]	1.34 ± 0.074	1.51 ± 0.053	1.37 ± 0.096	1.57 ± 0.042
SVLYQLSTSAFMEIVLE [YML031W/NDC1]	2.17 ± 0.047	2.07 ± 0.055	2.07 ± 0.068	2.67 ± 0.058
SVPLRKGDRALLVKLSK [BRR2]	2.46 ± 0.17	3.33 ± 0.18	3.06 ± 0.094	2.99 ± 0.15
SVQLPDMAKLKKMMNTS [SWI3]	2.14 ± 0.082	1.82 ± 0.092	1.91 ± 0.11	1.94 ± 0.082
SVSMLLQYYILEYMNTA [RRI2]	2.22 ± 0.079	2.34 ± 0.089	2.93 ± 0.086	2.19 ± 0.055
SVVHPGEMVGVLAAQSI [RPO21]	1.29 ± 0.13	1.81 ± 0.089	–	1.26 ± 0.06
SVVLTLQAFGESESTTN [RPB3]	2.42 ± 0.12	2.51 ± 0.088	1.67 ± 0.11	1.18 ± 0.052
SVWKPIAAIIGRLNTLV [IRR1]	1.68 ± 0.03	1.56 ± 0.026	2.04 ± 0.058	1.63 ± 0.024
SVYYHKGNFRTKPFENV [SNU114]	3.35 ± 0.065	3.35 ± 0.091	3.37 ± 0.059	3.31 ± 0.092
SWASEGISKKTRIAGVV [RPS8A]	2.54 ± 0.039	2.28 ± 0.034	2.17 ± 0.045	2.03 ± 0.034
SYALSMEKDKLKNLLRS [SNU114]	2.97 ± 0.25	2.24 ± 0.1	2.31 ± 0.16	2.68 ± 0.13
SYANLPGTITHGMFSSA [FAS1]	2.64 ± 0.06	2.15 ± 0.051	2.16 ± 0.055	2.51 ± 0.035
SYDRTLLIADSRRPEPK [RPS16A]	2.25 ± 0.043	2.48 ± 0.068	2.03 ± 0.075	2.29 ± 0.058
SYELRNTTTYKSRPDRP [SNF5]	3.14 ± 0.06	3.3 ± 0.071	3.1 ± 0.087	3.19 ± 0.067
SYFKNSVIVKFHSEPDR [LIN1]	2.23 ± 0.062	2.59 ± 0.075	2.44 ± 0.067	2.77 ± 0.047
SYRLLPQINILQPIKGE [RPC40]	2.04 ± 0.094	2.1 ± 0.087	1.74 ± 0.067	2.03 ± 0.064
SYTFRSEKGLLSATQFT [FAS1]	2.67 ± 0.052	2.65 ± 0.046	2.84 ± 0.045	2.78 ± 0.036
SYYSREQDALFITRLAQ [RPN1]	1.71 ± 0.044	1.85 ± 0.045	1.65 ± 0.078	1.8 ± 0.042
TAETGYIQRRLVKALED [RPO21]	2.31 ± 0.073	2.74 ± 0.074	2.69 ± 0.076	2.74 ± 0.072
